The target of assay [1] is T1, human CLDN6 (Claudin 6) (human, UniProt P56747 1-220).
T1 construct: whole, on cells; Over-expressed on CHOS cells (CHOS-hCLDN6) or naturally expressed on the tumor cells OV90, NEC8, NTERA2 and Bewo; also called hCLDN6; CHOS-hCLDN6
T1 sequence (looked up): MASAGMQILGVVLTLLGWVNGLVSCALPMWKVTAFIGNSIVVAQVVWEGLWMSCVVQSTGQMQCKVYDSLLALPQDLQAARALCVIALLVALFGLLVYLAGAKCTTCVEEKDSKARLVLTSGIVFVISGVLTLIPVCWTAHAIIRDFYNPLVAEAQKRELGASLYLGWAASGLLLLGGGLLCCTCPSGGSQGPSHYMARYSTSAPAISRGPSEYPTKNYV
Briefly: flow cytometry on CHOS-hCLDN6 cells. The procedure: (§1) Flow cytometric evaluation of mouse antibody binding to CLDN3/4/6/9: 500,000 CLDN6 expressing cells (CHOS-hCLDN6, CHOS-CLDN3, CHOS-CLDN4, CHOS-CLDN9) were placed in FACS buffer (PBS+2% FBS)/well, added with the mouse antibody to be tested and incubated at 4° C. for 1 hour. The supernatant was removed by centrifugation, washing was performed twice with FACS buffer, secondary antibody (DyLight488 goat anti-mouse IgG, Abcam, Cat. No.: ab97015) was added and incubated at 4° C. for 0.5 hours. After staining, the supernatant was removed by centrifugation, washing was performed twice with FACS buffer, the cells were resuspended with FACS buffer, and then loaded on the machine for reading. A flow cytometer (BD company, model CantoII) was used to measure and read the experimental cells. During the measurement, the cell position was first delineated according to FCS and SSC, and then the fluorescence channel corresponding to the second antibody and SSC were selected to analyze the cells.
(A flow cytometer gives signals particle by particle.)

Assay [2] has as its target T1, human CLDN6 (Claudin 6). Briefly: flow cytometry on NTERA2 tumor cells naturally expressing human CLDN6. The procedure:
(§2) 500,000 CLDN6-naturally expressing tumor cells (0V90, ATCC; NEC8, JCRB; NTERA2, Nanjing Cobioer Biosciences Co., Ltd; Bewo, Nanjing Cobioer Biosciences Co., Ltd) were placed in FACS buffer for later use, in which round-bottom low-adsorption 96-well plates were used. Antibody samples were serially diluted with FACS buffer. The diluted antibody was added to the cell plates, and FACS buffer was added to the corresponding negative control wells, and incubation was performed at 4° C. for 1 hour. […] After staining, the supernatant was removed by centrifugation, washing was performed twice with FACS buffer, and the cells were resuspended by adding FACS buffer to each well, and then loaded on a machine for reading. A flow cytometer (BD Company, model CantoII) was used to measure and read the cells in the experimental plate. During the measurement, the position of cells was first delineated according to FCS and SSC, and then the fluorescence channel corresponding to the second antibody and SSC were selected to analyze the cells. GraphPad was used for data analysis, the logarithm of antibody concentration was used on the abscissa, and the average fluorescence intensity value was used on the ordinate. […]

Assay [3] has as its target T1, human CLDN6 (Claudin 6). Briefly: cell-based or functional assay.
For assay [4], the target named is T1, human CLDN6 (Claudin 6). Briefly: flow cytometry on OV90 tumor cells naturally expressing human CLDN6. The procedure:
as §2

Assay [5] deals with T1, human CLDN6 (Claudin 6). Briefly: flow cytometry on Bewo tumor cells naturally expressing human CLDN6. The procedure:
as §2

In assay [6] the target is T1, human CLDN6 (Claudin 6). The assay is described as follows: flow cytometry on NEC8 tumor cells naturally expressing human CLDN6. The procedure: as §2
A further assay concerns the target T2, human CLDN9 (Claudin 9) (human, UniProt O95484 1-217).
T2 construct: whole, on cells; Over-expressed on CHOS cells by lentiviral infection; also called CHOS-CLDN9
T2 sequence (looked up): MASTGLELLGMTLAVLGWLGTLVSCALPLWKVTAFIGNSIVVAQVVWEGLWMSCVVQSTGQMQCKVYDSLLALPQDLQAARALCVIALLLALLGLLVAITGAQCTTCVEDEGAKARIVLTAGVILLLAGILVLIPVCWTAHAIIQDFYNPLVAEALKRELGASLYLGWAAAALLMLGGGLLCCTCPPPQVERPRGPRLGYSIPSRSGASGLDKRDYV
Briefly: flow cytometry on CHOS-CLDN9 cells. As to the method: as §1

The target in assay [7] is T1, human CLDN6 (Claudin 6). Briefly: binding to CLDN6-expressing cells (FIG. 6: NEC8, Bewo).

B1: anti-CLDN6 murine antibody 15H2 (antibody, V domains shown)
VH: DVQLQESGPGLVKPSQSLSLTCSVTGYSITSGYYWNWIRQFPGNKLEWMGYISYDGSNNYNPSLKNRFSIIRDTSKNQFFLKFNSVTTEDTATYYCARGGYYFDYWGQGTTLTVSS
VL: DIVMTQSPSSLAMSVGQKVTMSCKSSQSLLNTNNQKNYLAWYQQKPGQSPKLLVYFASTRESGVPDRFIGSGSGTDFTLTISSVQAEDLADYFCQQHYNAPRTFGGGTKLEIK
notes: Mouse hybridoma antibody, detected with anti-mouse IgG; the murine constant regions are not
With B1, the binding result with human CLDN6 (Claudin 6) [1] is “binds”.

B2: humanized antibody 7008-03 (antibody, human IgG1, kappa, V domains shown)
VH: EVQLVESGGGLVQPGGSLRLSCAASGFTFSIYGMSWVRQAPGKGLEWVATISRDASYTYFPDSVKGRFTISRDNAKNSLYLQMNSLRAEDTAVYYCVRLGDNDRGYAMDYWGQGTLVTVSS
VL: DVVMTQSPLSLPVTLGQPASISCRSSQSVVHVNANTYLEWYQQRPGQSPRLLIYKVSNRFPGVPDRFSGSGSGTDFTLKISRVEAEDVGVYYCFQGSHVPRTFGGGTKVEIKR
notes: Human IgG1 heavy chain constant region, human kappa light chain constant region
The term EC50 denotes the midpoint of the concentration-response curve. High values mean a need for much substance, low ones an effect from little substance. On to B2, for which, in the assay with human CLDN6 (Claudin 6) [2], a half-maximal effect (EC50) was put at 1.02 µg/mL. Moreover, in the assay with human CLDN6 (Claudin 6) [3], the “ADCC EC50, Bewo target cells, Jurkat-NFAT-Luc-CD16 effector reporter cells” value was determined as 0.21 µg/mL; the “ADCC EC50, NEC8 target cells, Jurkat-NFAT-Luc-CD16 effector reporter cells” value came out at 0.071 µg/mL; the “ADCC EC50, NTERA2 target cells, Jurkat-NFAT-Luc-CD16 effector reporter cells” value amounted to 0.4 µg/mL; the “ADCC EC50, OV90 target cells, Jurkat-NFAT-Luc-CD16 effector reporter cells” value came to 0.16 µg/mL. The molecule further came in with an EC50 with human CLDN6 (Claudin 6) [4] of 3.79 µg/mL. This molecule also returned an EC50 with human CLDN6 (Claudin 6) [5] of 0.9 µg/mL. This molecule also returned an EC50 in the assay with human CLDN6 (Claudin 6) [6] of 0.91 µg/mL.

B3: humanized antibody 7008-01 (antibody, human IgG1, kappa, V domains shown)
VH: QVQLQESGPGLVKPSETLSLTCTVSGYSITSGYYWNWIRQPPGKGLEWMGYISYSGSNNYNPSLKNRVTISRDTSKNQFSLKLSSVTAADTAVYYCARGGYYFDYWGQGTLVTVSS
VL: DIVMTQSPDSLAVSLGERATINCKSSQSLLNTNNQKNYLAWYQQKPGQPPKLLIYFASTRESGVPDRFSGSGSGTDFTLTISSLQAEDVAVYFCQQHYNAPRTFGGGTKVEIKR
notes: as for B2
In the assay with human CLDN6 (Claudin 6) [2], B3 returned an EC50 of 1.22 µg/mL. For the same molecule, in the assay with human CLDN6 (Claudin 6) [3], the “ADCC EC50, Bewo target cells, Jurkat-NFAT-Luc-CD16 effector reporter cells” value came out at 0.7 µg/mL; the “ADCC EC50, NEC8 target cells, Jurkat-NFAT-Luc-CD16 effector reporter cells” value came out at 0.15 µg/mL; the “ADCC EC50, NTERA2 target cells, Jurkat-NFAT-Luc-CD16 effector reporter cells” value was 0.55 µg/mL; the “ADCC EC50, OV90 target cells, Jurkat-NFAT-Luc-CD16 effector reporter cells” value came out at 0.55 µg/mL. In addition, the EC50 with human CLDN6 (Claudin 6) [4] was determined as 2.85 µg/mL. In the assay with human CLDN6 (Claudin 6) [5], the midpoint of the response, the EC50, lay at 1.06 µg/mL. In addition, the EC50 in the assay with human CLDN6 (Claudin 6) [6] was 1.31 µg/mL.

B4: anti-CLDN6 murine antibody 9H3 (antibody, V domains shown)
VH: EVQLVESGGDLVKPGGSLKLSCAASGFTFSIYGMSWVRQSPDRRLEWVATISRDGSYTYFPDSVKGRFTISRDNAKNTLYLQMSSLKSEDTAMYYCVRLGDNDRGYAMDYWGQGTSVTVSS
VL: DVLMTQTPLSLPVSLGDQASISCRSSQSVVHVNGNTYLEWYLQKPGQSPRLLIYKVSNRFPGVPDRFSGSGSGTDFTLRISRVEAEDLGVYYCFQGSHVPRTFGGGTNLEIK
notes: as for B1
As to B4, the binding result with human CLDN6 (Claudin 6) [1] and with human CLDN9 (Claudin 9) was “binds” each time.

B5: 9H3 hotspot mutant, LCDR1 NG mutated to SG and HCDR2 DG mutated to DA (antibody, V domains shown)
VH: EVQLVESGGDLVKPGGSLKLSCAASGFTFSIYGMSWVRQSPDRRLEWVATISRDASYTYFPDSVKGRFTISRDNAKNTLYLQMSSLKSEDTAMYYCVRLGDNDRGYAMDYWGQGTSVTVSS
VL: DVLMTQTPLSLPVSLGDQASISCRSSQSVVHVSGNTYLEWYLQKPGQSPRLLIYKVSNRFPGVPDRFSGSGSGTDFTLRISRVEAEDLGVYYCFQGSHVPRTFGGGTNLEIK
notes: also called 9H3 antibody with a hotspot mutant
For B5, in the assay with human CLDN6 (Claudin 6) [7], the “fold change of the ability to bind against the unmutated antibody” value is not above 3 times.

B6: 9H3 hotspot mutant, LCDR1 NG mutated to NA and HCDR2 DG mutated to DA (antibody, V domains shown)
VH: EVQLVESGGDLVKPGGSLKLSCAASGFTFSIYGMSWVRQSPDRRLEWVATISRDASYTYFPDSVKGRFTISRDNAKNTLYLQMSSLKSEDTAMYYCVRLGDNDRGYAMDYWGQGTSVTVSS
VL: DVLMTQTPLSLPVSLGDQASISCRSSQSVVHVNANTYLEWYLQKPGQSPRLLIYKVSNRFPGVPDRFSGSGSGTDFTLRISRVEAEDLGVYYCFQGSHVPRTFGGGTNLEIK
notes: as for B5
For the molecule B6, in the assay with human CLDN6 (Claudin 6) [7], the “fold change of the ability to bind against the unmutated antibody” value was not above 3 times.

The values above are taken from patent US20240150455A1 (SHANGHAI GENBASE BIOTECHNOLOGY, published 2024).
